# Assay results taken from US20230365662A1.
# Where “and” joins values, the source holds several entries; their conditions need not be identical. Equal entries are not always repeated.
# Target: HRgpA-6H (Porphyromonas gingivalis) (UniProt P28784)
# Assay: ELISA, FASEBA Fab on coated HRgpA-6H
# Chain of UniProt P28784 (P28784 228-991): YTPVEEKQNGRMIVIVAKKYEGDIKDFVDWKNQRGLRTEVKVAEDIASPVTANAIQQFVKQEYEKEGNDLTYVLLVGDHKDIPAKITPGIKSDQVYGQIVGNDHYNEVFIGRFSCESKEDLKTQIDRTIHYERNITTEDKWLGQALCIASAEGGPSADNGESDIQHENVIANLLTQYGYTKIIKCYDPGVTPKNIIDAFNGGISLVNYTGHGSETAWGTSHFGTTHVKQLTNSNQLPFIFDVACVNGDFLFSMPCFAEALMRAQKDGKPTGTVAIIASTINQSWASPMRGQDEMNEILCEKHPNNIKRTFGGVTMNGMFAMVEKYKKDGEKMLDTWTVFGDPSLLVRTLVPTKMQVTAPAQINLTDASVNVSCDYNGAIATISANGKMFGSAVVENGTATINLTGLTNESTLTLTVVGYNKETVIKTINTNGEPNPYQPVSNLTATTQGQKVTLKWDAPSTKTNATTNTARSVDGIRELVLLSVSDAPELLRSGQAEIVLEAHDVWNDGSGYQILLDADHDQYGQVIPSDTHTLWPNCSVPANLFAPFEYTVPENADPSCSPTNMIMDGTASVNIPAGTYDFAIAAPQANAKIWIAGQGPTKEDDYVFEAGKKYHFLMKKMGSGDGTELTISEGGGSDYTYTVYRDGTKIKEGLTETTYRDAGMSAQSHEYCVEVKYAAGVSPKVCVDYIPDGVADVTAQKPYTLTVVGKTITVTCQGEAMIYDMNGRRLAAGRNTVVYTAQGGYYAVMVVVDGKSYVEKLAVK
Binder,OD450nm,Ratio OD(Variant)/OD(WT)
"KB001 mouse Fab VL T24M (Fab, V domains shown) VH: EVQLKQSGPGLVAPSQSLSITCTVSGFSLSIYSVHWVRQPPGKGLEWLGMIWGGGSSDYNSALKSRLSISKDNSKSQVFLKMNSLQTDDTAMYYCARNGNFYAMDYWGQGTSVTVSS VL: QIVLTQSPAIMSASLGERVTMTCMASSSVSSSFLHWYQQKPGSSPQLWIYSTSNLASGVPARFSGSGSGTSYSLTISSMEAEDAATYYCHQYHHSPYIYTFGGGTKLEIK",0.797 and 0.75,1.04 and 0.975
"KB001 mouse Fab VL T24K (Fab, V domains shown) VH: EVQLKQSGPGLVAPSQSLSITCTVSGFSLSIYSVHWVRQPPGKGLEWLGMIWGGGSSDYNSALKSRLSISKDNSKSQVFLKMNSLQTDDTAMYYCARNGNFYAMDYWGQGTSVTVSS VL: QIVLTQSPAIMSASLGERVTMTCKASSSVSSSFLHWYQQKPGSSPQLWIYSTSNLASGVPARFSGSGSGTSYSLTISSMEAEDAATYYCHQYHHSPYIYTFGGGTKLEIK",0.797 and 0.734,1.04 and 0.954
"KB001 mouse Fab VL T24E (Fab, V domains shown) VH: EVQLKQSGPGLVAPSQSLSITCTVSGFSLSIYSVHWVRQPPGKGLEWLGMIWGGGSSDYNSALKSRLSISKDNSKSQVFLKMNSLQTDDTAMYYCARNGNFYAMDYWGQGTSVTVSS VL: QIVLTQSPAIMSASLGERVTMTCEASSSVSSSFLHWYQQKPGSSPQLWIYSTSNLASGVPARFSGSGSGTSYSLTISSMEAEDAATYYCHQYHHSPYIYTFGGGTKLEIK",0.852 and 0.81,1.11 and 1.05
"KB001 mouse Fab VL T24H (Fab, V domains shown) VH: EVQLKQSGPGLVAPSQSLSITCTVSGFSLSIYSVHWVRQPPGKGLEWLGMIWGGGSSDYNSALKSRLSISKDNSKSQVFLKMNSLQTDDTAMYYCARNGNFYAMDYWGQGTSVTVSS VL: QIVLTQSPAIMSASLGERVTMTCHASSSVSSSFLHWYQQKPGSSPQLWIYSTSNLASGVPARFSGSGSGTSYSLTISSMEAEDAATYYCHQYHHSPYIYTFGGGTKLEIK",0.795,1.03
"KB001 mouse Fab VL A25F (Fab, V domains shown) VH: EVQLKQSGPGLVAPSQSLSITCTVSGFSLSIYSVHWVRQPPGKGLEWLGMIWGGGSSDYNSALKSRLSISKDNSKSQVFLKMNSLQTDDTAMYYCARNGNFYAMDYWGQGTSVTVSS VL: QIVLTQSPAIMSASLGERVTMTCTFSSSVSSSFLHWYQQKPGSSPQLWIYSTSNLASGVPARFSGSGSGTSYSLTISSMEAEDAATYYCHQYHHSPYIYTFGGGTKLEIK",0.818 and 0.827 and 0.775,1.04 and 1.06 and 0.99
"KB001 mouse Fab VL A25T (Fab, V domains shown) VH: EVQLKQSGPGLVAPSQSLSITCTVSGFSLSIYSVHWVRQPPGKGLEWLGMIWGGGSSDYNSALKSRLSISKDNSKSQVFLKMNSLQTDDTAMYYCARNGNFYAMDYWGQGTSVTVSS VL: QIVLTQSPAIMSASLGERVTMTCTTSSSVSSSFLHWYQQKPGSSPQLWIYSTSNLASGVPARFSGSGSGTSYSLTISSMEAEDAATYYCHQYHHSPYIYTFGGGTKLEIK",0.823 and 0.801,1.05 and 1.02
"KB001 mouse Fab VL S26N (Fab, V domains shown) VH: EVQLKQSGPGLVAPSQSLSITCTVSGFSLSIYSVHWVRQPPGKGLEWLGMIWGGGSSDYNSALKSRLSISKDNSKSQVFLKMNSLQTDDTAMYYCARNGNFYAMDYWGQGTSVTVSS VL: QIVLTQSPAIMSASLGERVTMTCTANSSVSSSFLHWYQQKPGSSPQLWIYSTSNLASGVPARFSGSGSGTSYSLTISSMEAEDAATYYCHQYHHSPYIYTFGGGTKLEIK",0.823 and 0.749,1.05 and 0.957
"KB001 mouse Fab VL S26D (Fab, V domains shown) VH: EVQLKQSGPGLVAPSQSLSITCTVSGFSLSIYSVHWVRQPPGKGLEWLGMIWGGGSSDYNSALKSRLSISKDNSKSQVFLKMNSLQTDDTAMYYCARNGNFYAMDYWGQGTSVTVSS VL: QIVLTQSPAIMSASLGERVTMTCTADSSVSSSFLHWYQQKPGSSPQLWIYSTSNLASGVPARFSGSGSGTSYSLTISSMEAEDAATYYCHQYHHSPYIYTFGGGTKLEIK",0.821,1.05
"KB001 mouse Fab VL S27K (Fab, V domains shown) VH: EVQLKQSGPGLVAPSQSLSITCTVSGFSLSIYSVHWVRQPPGKGLEWLGMIWGGGSSDYNSALKSRLSISKDNSKSQVFLKMNSLQTDDTAMYYCARNGNFYAMDYWGQGTSVTVSS VL: QIVLTQSPAIMSASLGERVTMTCTASKSVSSSFLHWYQQKPGSSPQLWIYSTSNLASGVPARFSGSGSGTSYSLTISSMEAEDAATYYCHQYHHSPYIYTFGGGTKLEIK",0.783 and 0.745 and 0.697,1.04 and 0.993 and 0.929
"KB001 mouse Fab VL S28P (Fab, V domains shown) VH: EVQLKQSGPGLVAPSQSLSITCTVSGFSLSIYSVHWVRQPPGKGLEWLGMIWGGGSSDYNSALKSRLSISKDNSKSQVFLKMNSLQTDDTAMYYCARNGNFYAMDYWGQGTSVTVSS VL: QIVLTQSPAIMSASLGERVTMTCTASSPVSSSFLHWYQQKPGSSPQLWIYSTSNLASGVPARFSGSGSGTSYSLTISSMEAEDAATYYCHQYHHSPYIYTFGGGTKLEIK",0.808 and 0.726,1.08 and 0.967
"KB001 mouse Fab VL S28W (Fab, V domains shown) VH: EVQLKQSGPGLVAPSQSLSITCTVSGFSLSIYSVHWVRQPPGKGLEWLGMIWGGGSSDYNSALKSRLSISKDNSKSQVFLKMNSLQTDDTAMYYCARNGNFYAMDYWGQGTSVTVSS VL: QIVLTQSPAIMSASLGERVTMTCTASSWVSSSFLHWYQQKPGSSPQLWIYSTSNLASGVPARFSGSGSGTSYSLTISSMEAEDAATYYCHQYHHSPYIYTFGGGTKLEIK",0.817 and 0.745,1.09 and 0.993
"KB001 mouse Fab VL S28K (Fab, V domains shown) VH: EVQLKQSGPGLVAPSQSLSITCTVSGFSLSIYSVHWVRQPPGKGLEWLGMIWGGGSSDYNSALKSRLSISKDNSKSQVFLKMNSLQTDDTAMYYCARNGNFYAMDYWGQGTSVTVSS VL: QIVLTQSPAIMSASLGERVTMTCTASSKVSSSFLHWYQQKPGSSPQLWIYSTSNLASGVPARFSGSGSGTSYSLTISSMEAEDAATYYCHQYHHSPYIYTFGGGTKLEIK",0.801,1.07
"KB001 mouse Fab VL S28G (Fab, V domains shown) VH: EVQLKQSGPGLVAPSQSLSITCTVSGFSLSIYSVHWVRQPPGKGLEWLGMIWGGGSSDYNSALKSRLSISKDNSKSQVFLKMNSLQTDDTAMYYCARNGNFYAMDYWGQGTSVTVSS VL: QIVLTQSPAIMSASLGERVTMTCTASSGVSSSFLHWYQQKPGSSPQLWIYSTSNLASGVPARFSGSGSGTSYSLTISSMEAEDAATYYCHQYHHSPYIYTFGGGTKLEIK",0.818,1.09
"KB001 mouse Fab VL S28V (Fab, V domains shown) VH: EVQLKQSGPGLVAPSQSLSITCTVSGFSLSIYSVHWVRQPPGKGLEWLGMIWGGGSSDYNSALKSRLSISKDNSKSQVFLKMNSLQTDDTAMYYCARNGNFYAMDYWGQGTSVTVSS VL: QIVLTQSPAIMSASLGERVTMTCTASSVVSSSFLHWYQQKPGSSPQLWIYSTSNLASGVPARFSGSGSGTSYSLTISSMEAEDAATYYCHQYHHSPYIYTFGGGTKLEIK",0.786 and 0.731 and 0.717,1.05 and 0.974 and 0.955
"KB001 mouse Fab VL S30F (Fab, V domains shown) VH: EVQLKQSGPGLVAPSQSLSITCTVSGFSLSIYSVHWVRQPPGKGLEWLGMIWGGGSSDYNSALKSRLSISKDNSKSQVFLKMNSLQTDDTAMYYCARNGNFYAMDYWGQGTSVTVSS VL: QIVLTQSPAIMSASLGERVTMTCTASSSVFSSFLHWYQQKPGSSPQLWIYSTSNLASGVPARFSGSGSGTSYSLTISSMEAEDAATYYCHQYHHSPYIYTFGGGTKLEIK",0.911,1.06
"KB001 mouse Fab VL S30G (Fab, V domains shown) VH: EVQLKQSGPGLVAPSQSLSITCTVSGFSLSIYSVHWVRQPPGKGLEWLGMIWGGGSSDYNSALKSRLSISKDNSKSQVFLKMNSLQTDDTAMYYCARNGNFYAMDYWGQGTSVTVSS VL: QIVLTQSPAIMSASLGERVTMTCTASSSVGSSFLHWYQQKPGSSPQLWIYSTSNLASGVPARFSGSGSGTSYSLTISSMEAEDAATYYCHQYHHSPYIYTFGGGTKLEIK",0.916 and 0.858,1.06 and 0.995
"KB001 mouse Fab VL S31P (Fab, V domains shown) VH: EVQLKQSGPGLVAPSQSLSITCTVSGFSLSIYSVHWVRQPPGKGLEWLGMIWGGGSSDYNSALKSRLSISKDNSKSQVFLKMNSLQTDDTAMYYCARNGNFYAMDYWGQGTSVTVSS VL: QIVLTQSPAIMSASLGERVTMTCTASSSVSPSFLHWYQQKPGSSPQLWIYSTSNLASGVPARFSGSGSGTSYSLTISSMEAEDAATYYCHQYHHSPYIYTFGGGTKLEIK",0.87 and 0.875 and 0.856,1.03 and 1.04 and 1.01
"KB001 mouse Fab VL S31E (Fab, V domains shown) VH: EVQLKQSGPGLVAPSQSLSITCTVSGFSLSIYSVHWVRQPPGKGLEWLGMIWGGGSSDYNSALKSRLSISKDNSKSQVFLKMNSLQTDDTAMYYCARNGNFYAMDYWGQGTSVTVSS VL: QIVLTQSPAIMSASLGERVTMTCTASSSVSESFLHWYQQKPGSSPQLWIYSTSNLASGVPARFSGSGSGTSYSLTISSMEAEDAATYYCHQYHHSPYIYTFGGGTKLEIK",0.903 and 0.798,1.07 and 0.944
"KB001 mouse Fab VL S31Y (Fab, V domains shown) VH: EVQLKQSGPGLVAPSQSLSITCTVSGFSLSIYSVHWVRQPPGKGLEWLGMIWGGGSSDYNSALKSRLSISKDNSKSQVFLKMNSLQTDDTAMYYCARNGNFYAMDYWGQGTSVTVSS VL: QIVLTQSPAIMSASLGERVTMTCTASSSVSYSFLHWYQQKPGSSPQLWIYSTSNLASGVPARFSGSGSGTSYSLTISSMEAEDAATYYCHQYHHSPYIYTFGGGTKLEIK",0.849,1
"KB001 mouse Fab VL S31F (Fab, V domains shown) VH: EVQLKQSGPGLVAPSQSLSITCTVSGFSLSIYSVHWVRQPPGKGLEWLGMIWGGGSSDYNSALKSRLSISKDNSKSQVFLKMNSLQTDDTAMYYCARNGNFYAMDYWGQGTSVTVSS VL: QIVLTQSPAIMSASLGERVTMTCTASSSVSFSFLHWYQQKPGSSPQLWIYSTSNLASGVPARFSGSGSGTSYSLTISSMEAEDAATYYCHQYHHSPYIYTFGGGTKLEIK",0.854 and 0.688 and 0.693,1.01 and 0.814 and 0.82
"KB001 mouse Fab VL S31T (Fab, V domains shown) VH: EVQLKQSGPGLVAPSQSLSITCTVSGFSLSIYSVHWVRQPPGKGLEWLGMIWGGGSSDYNSALKSRLSISKDNSKSQVFLKMNSLQTDDTAMYYCARNGNFYAMDYWGQGTSVTVSS VL: QIVLTQSPAIMSASLGERVTMTCTASSSVSTSFLHWYQQKPGSSPQLWIYSTSNLASGVPARFSGSGSGTSYSLTISSMEAEDAATYYCHQYHHSPYIYTFGGGTKLEIK",0.859 and 0.74 and 0.782,1.02 and 0.876 and 0.925
